Data as given in US20090298761A1 (MARIEL THERAPEUTICS, published 2009).

How the values were obtained:
[1] = biological target: T1, OP-1 pro domain, truncated form (human, UniProt P18075 48-292); assay: reverse phase C18 HPLC separation of the purified soluble complex into pro domain and mature species, then N-terminal sequencing
T1 construct: also called truncated form of the pro region (beginning at residue 48); 48-292 truncated form
From the text: The complex components can be verified by running the complex-containing fraction from the S-200 or S-200HR columns over a reverse phase C18 HPLC column and eluting in an acetonitrile gradient (in 0.1% TFA), using standard procedures. The complex is dissociated by this step, and the pro domain and mature species elute as separate species. These separate species then can be subjected to N-terminal sequencing using standard procedures (see, for example, Guide to Protein Purification, M. Deutscher, ed., Academic Press, San Diego, 1990, particularly pp. 602-613), and the identity of the isolated 36 kD, 39 kDa proteins confirmed as mature morphogenic protein and isolated, cleaved pro domain, respectively.

[2] = biological target: T2, OP-1 pro domain, intact form (human, UniProt P18075 30-292); assay: gel filtration (Sephacryl S-200HR in TBS) of soluble OP-1 complex purified from CHO conditioned media without denaturants; complex elutes at an apparent 110 kDa
T2 construct: Cleaved pro domain of 39 kDa; also called pro region; full length pro region (residues 30-292)
Method: The 50 mM imidazole eluate containing the soluble OP-1 complex was diluted with nine volumes of 20 mM NaPO₄ (pH 7.0) and applied to an S-Sepharose (Pharmacia) column equilibrated in 20 mM NaPO₄ (pH 7.0) with 50 mM NaCl. The S-Sepharose resin was loaded with an equivalent of 800 mL of starting conditioned media per mL of resin. After loading the S-Sepharose column was washed with equilibration buffer and eluted with 100 mM NaCl followed by 300 mM and 500 mM NaCl in 20 mM NaPO₄ (pH 7.0). The 300 mM NaCl pool was further purified using gel filtration chromatography. Fifty mls of the 300 mm NaCl eluate was applied to a 5.0×90 cm Sephacryl S-200HR (Pharmacia) equilibrated in Tris buffered saline (TBS), 50 mM Tris, 150 mM NaCl (pH 7.4). […] The apparent molecular of the soluble OP-1 was determined by comparison to protein molecular weight standards (alcohol dehydrogenase (ADH, 150 kDa), bovine serum albumin (BSA, 68 kDa), carbonic anhydrase (CA, 30 kDa) and cytochrome C (cyt C, 12.5 kDa) (see FIG. 3). The purity of the S-200 column fractions was determined by separation on standard 15% polyacrylamide SDS gels stained with coomassie blue. The identity of the mature OP-1 and the pro-domain was determined by N-terminal sequence analysis after separation of the mature OP-1 from the pro-domain using standard reverse phase C18 HPLC.

T1 sequence (P18075 48-292): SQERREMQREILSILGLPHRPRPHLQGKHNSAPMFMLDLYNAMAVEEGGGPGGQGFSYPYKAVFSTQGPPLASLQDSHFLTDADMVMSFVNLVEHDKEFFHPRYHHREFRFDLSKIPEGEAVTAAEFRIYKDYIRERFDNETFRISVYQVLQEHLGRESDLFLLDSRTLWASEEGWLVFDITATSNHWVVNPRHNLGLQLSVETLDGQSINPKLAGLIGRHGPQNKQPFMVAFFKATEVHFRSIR
T2 sequence (P18075 30-292): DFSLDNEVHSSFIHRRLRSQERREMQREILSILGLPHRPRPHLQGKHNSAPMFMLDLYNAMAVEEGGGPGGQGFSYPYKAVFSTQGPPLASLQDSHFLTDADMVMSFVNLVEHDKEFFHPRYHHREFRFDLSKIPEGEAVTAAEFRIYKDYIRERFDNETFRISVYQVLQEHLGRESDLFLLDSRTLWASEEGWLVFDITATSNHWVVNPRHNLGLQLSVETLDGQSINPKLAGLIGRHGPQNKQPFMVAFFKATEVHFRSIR

B1: mature OP-1 dimer (ligand)
chain: STGSKQRSQNRSKTPKNQEALRMANVAENSSSDQRQACKKHELYVSFRDLGWQDWIIAPEGYAAYYCEGECAFPLNSYMNATNHAIVQTLVHFINPETVPKPCCAPTQLNAISVLYFDDSSNVILKKYRNMVVRACGCH
notes: Expressed in CHO cells and purified as part of the soluble OP-1 complex; The dimer runs at 35-36 kDa; also called BMP-7; osteogenic protein-1
B1: binds [1]; binds [2].
